Target: SARS-CoV-2 spike protein (original strain) (SARS-CoV-2) (UniProt P0DTC2)
Assay: flow

In the case of Control (-) Apt targeting CD8, the Kd is reported as 312 nM.

— patent US20250207140
